Data on 2 compounds can be found in paper PMC11089504 (Journal of medicinal chemistry, 2024).

For data set [1], the system named is CC(C)=CCC[C@@H](C)[C@H]1CC[C@@]2(C)C3=C(CC[C@]12C)[C@@]1(C)CC[C@H](O)C(C)(C)[C@@H]1CC3. The data set can be described thus: purified protein, by the assay type. Conditions: other: 37 °C, 1 min reactions obtusifoliol, 20 min lanosterol.
The subject of data set [2] is C=C(CC[C@@H](C)[C@H]1CC[C@@]2(C)C3=C(CC[C@]12C)[C@@]1(C)CC[C@H](O)[C@@H](C)[C@@H]1CC3)C(C)C. In words: purified protein, by the assay type. As to conditions: other: 37 °C, 1 min reactions obtusifoliol, 20 min lanosterol.
The target of the next data set is T1, A. castellanii CYP51 (Acanthamoeba castellanii, UniProt L8GJB3, V2A).
T1 sequence (L8GJB3 1-486 V2A): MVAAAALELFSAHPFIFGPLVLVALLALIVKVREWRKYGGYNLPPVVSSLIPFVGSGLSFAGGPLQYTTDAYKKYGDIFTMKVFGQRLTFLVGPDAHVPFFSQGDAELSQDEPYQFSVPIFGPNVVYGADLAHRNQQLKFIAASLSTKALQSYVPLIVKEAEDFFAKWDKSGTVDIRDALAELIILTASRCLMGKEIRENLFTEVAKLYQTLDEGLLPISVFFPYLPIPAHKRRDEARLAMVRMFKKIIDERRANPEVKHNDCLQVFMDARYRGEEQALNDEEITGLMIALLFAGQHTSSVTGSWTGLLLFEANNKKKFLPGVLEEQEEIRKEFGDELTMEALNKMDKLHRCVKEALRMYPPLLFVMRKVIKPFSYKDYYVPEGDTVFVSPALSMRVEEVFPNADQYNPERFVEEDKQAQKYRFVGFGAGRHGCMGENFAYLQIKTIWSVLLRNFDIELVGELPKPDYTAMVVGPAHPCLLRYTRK
T1 sequence (P00388 2-678 partner): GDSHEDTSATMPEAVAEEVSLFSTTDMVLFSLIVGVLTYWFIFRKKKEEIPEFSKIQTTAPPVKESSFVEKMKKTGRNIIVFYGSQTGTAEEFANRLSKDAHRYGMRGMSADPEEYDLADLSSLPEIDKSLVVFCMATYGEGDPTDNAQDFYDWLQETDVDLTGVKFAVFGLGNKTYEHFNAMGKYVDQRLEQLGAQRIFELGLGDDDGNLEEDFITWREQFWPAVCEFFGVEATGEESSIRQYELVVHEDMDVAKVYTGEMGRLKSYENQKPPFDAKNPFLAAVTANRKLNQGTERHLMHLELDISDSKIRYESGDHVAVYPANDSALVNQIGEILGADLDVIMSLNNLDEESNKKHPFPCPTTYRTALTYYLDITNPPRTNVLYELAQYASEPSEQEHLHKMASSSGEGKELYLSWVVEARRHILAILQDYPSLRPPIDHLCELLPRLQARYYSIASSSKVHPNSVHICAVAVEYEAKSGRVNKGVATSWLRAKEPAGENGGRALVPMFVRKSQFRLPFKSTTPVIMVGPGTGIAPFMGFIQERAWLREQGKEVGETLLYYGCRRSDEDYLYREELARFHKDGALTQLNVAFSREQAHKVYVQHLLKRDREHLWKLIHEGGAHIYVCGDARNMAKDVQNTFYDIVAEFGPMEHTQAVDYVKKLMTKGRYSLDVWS
In words: A. castellanii CYP51 inhibition assay, reconstituted 1 h enzyme reaction. Type of data set: biochemical. Conditions: 1 h IC50, 1 h reaction, 0.5 μM P450, 50 μM obtusifoliol.

As a reminder, the Km is the substrate concentration at which the rate is half of its maximum. The kcat is the number of substrate molecules converted per active site and unit of time at saturation. The term kcat/Km denotes the turnover number divided by the Michaelis constant. With “A. castellanii CYP51 (Acanthamoeba castellanii str. Neff; V2A)”, in data set [1], the Km was 52 ± 15 µM, the kcat was 0.102 s⁻¹ and the specificity constant (kcat/Km) stood at 2000 M⁻¹ s⁻¹. In addition, in data set [2], the Km is 2.7 ± 0.3 µM, the kcat is 0.513 s⁻¹ and the kcat/Km was 190000 M⁻¹ s⁻¹.

As a reminder, the IC50 is the concentration at which inhibition is half-maximal. A higher IC50 goes with lower potency. For `OC(Cn1cncn1)(Cn1cncn1)c1ccc(F)cc1F` [fluconazole], on A. castellanii CYP51, the IC50 came to 71 µM.
